Reference: publication PMC7498358

Target: YB-1 CSDex (Homo sapiens, UniProt P67809 51-140)
Assay: NMR HSQC titration

Chain of YB-1 CSDex (P67809 51-140): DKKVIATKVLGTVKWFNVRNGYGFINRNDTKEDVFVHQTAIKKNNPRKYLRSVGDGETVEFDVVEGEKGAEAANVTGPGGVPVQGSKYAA

B1: CACC dsDNA (dsDNA)
DNA 1: TCAACACCTC
DNA 2: GAGGTGTTGA
B1: binds.
